# Values quoted from earlier work as cited in patent US12037378B2, “Variant CD58 domains and uses thereof” (NOVARTIS AG, priority 2019, dated 2024).
# T1: CD2 (Homo sapiens, UniProt P06729)
# T1 sequence (P06729 25-351): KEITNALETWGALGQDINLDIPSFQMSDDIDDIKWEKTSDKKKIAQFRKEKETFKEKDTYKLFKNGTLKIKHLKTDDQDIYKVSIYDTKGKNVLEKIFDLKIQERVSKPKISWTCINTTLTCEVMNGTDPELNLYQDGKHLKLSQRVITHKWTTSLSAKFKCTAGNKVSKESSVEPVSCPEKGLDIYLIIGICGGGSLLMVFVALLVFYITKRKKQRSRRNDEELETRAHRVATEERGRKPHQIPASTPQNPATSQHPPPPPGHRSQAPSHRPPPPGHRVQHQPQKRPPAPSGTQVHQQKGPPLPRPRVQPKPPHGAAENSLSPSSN
# B1: CD58-6: Amino acids 30-123 (WT) Ig-V like domain of CD58, SEQ ID NO:6 (protein, listed as Homo sapiens)
# chain: SQQIYGVVYGNVTFHVPSNVPLKEVLWKKQKDKVAELENSEFRAFSSFKNRVYLDTVSGSLTIYNLTSSDEDEYEMESPNITDTMKFFLYVLES
# Target: T1, CD2
# Settings: Wang et al., 1999, Cell 97:791-803; cited from earlier work
molecule,measurement,value
B1,binding to CD2,sufficient for binding to CD2
